US4562175A, “Synthetic peptides” (priority 1984, dated 1985)
“Also recorded” adds a separate entry of the source. Non-standard residues stand in square brackets, D forms with d. No end group written: not given here. Nle = CCCC[C@H](N)C(=O)O

Assays:
[1] = Susceptibility to oxidation / loss of biological activity (stability); assay type: physicochemical
[2] = test system: monolayer rat pituitary cell cultures; experiment: GH release from monolayer rat pituitary cell cultures; assay type: cell-based
Procedure: In vitro analysis of the synthetic peptide: The synthetic Nle^27 -hpGRF was added to the medium of monolayer rat pituitary cell cultures and incubated. After incubation, the media was assayed for GH released from the pituitary cells and compared to control cultures (medium alone). The amount of GH released in response to varying doses of Nle^27 -hpGRF was compared to the GH release induced by the same concentrations of the synthetic hpGRF.

[3] = storage or in a living system; believed to be caused at least partly by oxidation of methionine 27; cited from earlier work

resistance to oxidation ([1]; norleucine at position 27 instead of methionine) | Substance | loss of biological activity through methionine oxidation [1] | GH-releasing activity with reducing agent added to the test medium ([2]; L-ascorbic acid added to test medium, compared to medium without reducing agent) | loss of biological activity during storage or when introduced into a living system [3] | GH-releasing activity (GH released into medium) compared with hpGRF ([2]; varying doses, same concentrations as synthetic hpGRF, tested at the same time under identical conditions)
 | corticotropin-releasing factor | Loss of biologic activity |  |  | 
 | hpGRF: human pancreatic tumor growth hormone-releasing factor, 44 amino acid residues, methionine at position 27 | drastic loss of biological activity | enhance the GH-releasing activity | drastic loss of biological activity | 
resistant to oxidation | YADAIFTNSYRKVLGQLSARKLLQDI[Nle]SRQQGQSNQERGARARL-NH2 [Nle^27 -hpGRF] |  |  |  | significantly greater biological activity than synthetic hpGRF; also recorded: greater growth hormone-releasing activity than the natural compound; also recorded: greater GH-releasing activity than original hpGRF
